Test [1] addresses Fr. 3 antigen (C-terminal region, zinc finger region, positions 294-449 of WT1) (human) (UniProt P19544). Briefly: antigen inhibition ELISA on immobilised Fr. 3; antibody whose binding is inhibited: C-19 (PoAb). (ELISA stands for enzyme-linked immunosorbent assay.)
Test [2] shares this target. Briefly: antigen inhibition ELISA on immobilised Fr. 3; antibody whose binding is inhibited: serum sample No. 7.
Test [3] shares this target. As to the kind of experiment: antigen inhibition ELISA on immobilised Fr. 3; antibody whose binding is inhibited: serum sample No. 9.
For test [4] the target is unchanged. As to the kind of experiment: antigen inhibition ELISA on immobilised Fr. 3; antibody whose binding is inhibited: serum sample No. 3.

Our source for the percent inhibition values is patent US20170138958A1.

UniProt P19544, sequence (P19544 294-449): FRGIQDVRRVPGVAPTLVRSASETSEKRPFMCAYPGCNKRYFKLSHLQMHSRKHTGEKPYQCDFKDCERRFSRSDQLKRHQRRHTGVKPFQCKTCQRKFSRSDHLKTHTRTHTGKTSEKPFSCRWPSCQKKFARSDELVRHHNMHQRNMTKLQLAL

Consider “Fr. 1 antigen (recombinant hWT1 Fr. 1, N-terminal region, positions 1-182 of WT1) (from UniProt P19544 1-182)”, for which the percent inhibition in test [1] was 25%; in test [2], 10%; in test [3] it was 40%.
Regarding “Fr. 2 antigen (hWT1 Fr. 2, central region, positions 181-324 of WT1) (from UniProt P19544 181-324)”, the percent inhibition stood at 50% in test [1], 20% in test [2] and 70% in test [4].
